Assay results from doi:10.1101/2024.11.27.625426 (bioRxiv, 2024).
Where a chain is given by its changes, count along the chain named.

B1: NCS.1.1 mAb (IgG) (antibody, V domains shown)
VH: QVQLQESGPRLVKPSETLSLTCSVSGESISSGGYYWTWIRQHPGKGLEWIGNIFDTGSTDYSPSLKTRLTISIDTSKNQFYLRLNSATAADTAVYYCARVGFSLETDRPYYLGLDVWGQGTTVTVSS
VL: DIVMTQSPLSLPVTPGEPASISCRSSQSLLHSNGYTYLDWYLQKPGQSPQLLISFTSNRASGVPDRFSGSGSGTYFTLKISRVEAEDVGVYYCMQAVQTPWTFGQGTKVEIK
notes: copies: 2 + 2
B2: NCS.1.3 mAb (IgG) (antibody, V domains shown)
VH: B1 VH with N85T
VL: B1 VL with S10T, S54Y, T56A, T99S
notes: copies: 2 + 2

Assays:
[1] = molecular target: T1, NA of influenza B-Victoria lineage virus B/Colorado/06/2017 (B/Vic CO17) (Influenza B virus B/Colorado/06/2017 …, UniProt A0A1X9RX69); assay: ELISA; conditions: both partners purified
T1 construct: not shown: His6, N-terminal, kept

[2] = molecular target: sNAp of A/New Caledonia/20/1999 (NC99, H1N1) NA (Influenza A virus A/New …, UniProt Q7TG96, stabilised); assay: ELISA; conditions: both partners purified

| Binder | binding result [1] | binding result [2] |
| --- | --- | --- |
| B1 | binds | binds |
| B2 | binds | binds |
